These results are taken from patent publication US20030027338A1 (BROOKHAVEN SCIENCE ASSOCIATES, published 2003).

The labels stand for the following.
T1: Ad12 knob mutant P417E/P418A (his-tagged) (adenovirus serotype 12, UniProt P36711 401-587)
T1 construct: range 401-587; AB loop; also called double substitution P417E/P418A; not shown: pET15b vector-encoded N-terminal hexahistidine tag
T1 sequence: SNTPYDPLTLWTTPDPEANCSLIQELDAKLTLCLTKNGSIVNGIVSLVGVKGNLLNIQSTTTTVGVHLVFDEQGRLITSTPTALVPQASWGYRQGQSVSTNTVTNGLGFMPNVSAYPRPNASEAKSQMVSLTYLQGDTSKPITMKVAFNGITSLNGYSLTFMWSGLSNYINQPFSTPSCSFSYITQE

T2: his-tagged Ad12 knob (wild type) (adenovirus serotype 12, UniProt P36711 401-587)
T2 construct: range 401-587; Cloned between the NdeI and BamHI sites of pET15b; tag left on; also called Purified, his-tagged Ad12 knob; wild-type his-tagged knob protein; not shown: pET15b vector-encoded N-terminal hexahistidine tag
T2 sequence: T1 sequence with E17P, A18P

B1: Ad12 knob (recombinant adenovirus type 12 fiber knob domain, his-tag removed by thrombin) (other)
chain: T1 sequence with E17P, A18P
notes: range 401-587; Expressed from pET15b in E. coli; The hexahistidine tag was cleaved with thrombin; Trimer by SDS-PAGE, STEM (60.6 kDa) and gel filtration; also called Ad12 fiber knob
B2: his-tagged D1 (refolded amino-terminal IgV domain of human CAR) (receptor)
chain: MGITTPEEMIEKAKGETAYLPCKFTLSPEDQGPLDIEWLISPADNQKVDQVIILYSGDKIYDDYYPDLKGRVHFTSNDLKSGDASINVTNLQLSDIGTYQCKVKKAPGVANKKIHLVVLVKPSGA
notes: range 20-144; also called CAR D1; CARD1; not shown: pET15b vector-encoded amino-terminal hexahistidine tag
B3: biotinylated CARD1 protein (receptor)
chain: B2 chain with M1L, G2S
modifications: biotinylated with sulfo-NHS-LC biotin (sites not given)
notes: domain: D1
B4: his-tagged D1/D2 (refolded entire extracellular region of human CAR, IgV+IgC2 domains) (receptor)
chain: MGITTPEEMIEKAKGETAYLPCKFTLSPEDQGPLDIEWLISPADNQKVDQVIILYSGDKIYDDYYPDLKGRVHFTSNDLKSGDASINVTNLQLSDIGTYQCKVKKAPGVANKKIHLVVLVKPSGARCYVDGSEEIGSDFKIKCEPKEGSLPLQYEWQKLSDSQKMPTSWLAEMTSSVISVKNASSEYSGTYSCTVRNRVGSDQCLLRLNVVPPSNKAG
notes: range 20-237; also called CAR D1/D2; CARD1/D2; not shown: pET15b vector-encoded amino-terminal hexahistidine tag
B5: sD1 (soluble D1 of human CAR with 22 amino acid carboxy-terminal extension) (receptor)
chain: MGITTPEEMIEKAKGETAYLPCKFTLSPEDQGPLDIEWLISPADNQKVDQVIILYSGDKIYDDYYPDLKGRVHFTSNDLKSGDASINVTNLQLSDIGTYQCKVKKAPGVANKKIHLVVLVKPSGALEDPAANKARKEAELAAATAEQ
notes: range 20-144; No hexahistidine tag; Used as a partially purified preparation; also called pET15b-sD1 product

Substitutions are numbered along the chain they refer to.

For assay [1], the target named is B4. As to the kind of experiment: Ni-NTA pull-down with his-tagged D1/D2, SDS-PAGE of bead eluate.
For assay [2], the target named is T3, purified Ad2 hexon protein (adenovirus type 2, UniProt P03277 2-968).
T3 construct: Included as a specificity control in the pull-down
As to the kind of experiment: Ni-NTA pull-down with his-tagged D1, SDS-PAGE of bead eluate.

Assay [3] concerns the target T1, Ad12 knob mutant P417E/P418A …. As to the kind of experiment: dot blot: his-tagged knob on nitrocellulose (5 µg per dot) probed with biotinylated CARD1, chemiluminescence; text: abrogated CARD1 binding.
Assay [4] has as its target T3, purified Ad2 hexon protein. As to the kind of experiment: Ni-NTA pull-down with his-tagged D1/D2, SDS-PAGE of bead eluate.
Assay [5] addresses T2, his-tagged Ad12 knob (wild type). As to the kind of experiment: Ni-NTA column capture of his-tagged knob mixed with sD1, EDTA elution, SDS-PAGE.

T3 sequence (P03277 2-968 limits assumed): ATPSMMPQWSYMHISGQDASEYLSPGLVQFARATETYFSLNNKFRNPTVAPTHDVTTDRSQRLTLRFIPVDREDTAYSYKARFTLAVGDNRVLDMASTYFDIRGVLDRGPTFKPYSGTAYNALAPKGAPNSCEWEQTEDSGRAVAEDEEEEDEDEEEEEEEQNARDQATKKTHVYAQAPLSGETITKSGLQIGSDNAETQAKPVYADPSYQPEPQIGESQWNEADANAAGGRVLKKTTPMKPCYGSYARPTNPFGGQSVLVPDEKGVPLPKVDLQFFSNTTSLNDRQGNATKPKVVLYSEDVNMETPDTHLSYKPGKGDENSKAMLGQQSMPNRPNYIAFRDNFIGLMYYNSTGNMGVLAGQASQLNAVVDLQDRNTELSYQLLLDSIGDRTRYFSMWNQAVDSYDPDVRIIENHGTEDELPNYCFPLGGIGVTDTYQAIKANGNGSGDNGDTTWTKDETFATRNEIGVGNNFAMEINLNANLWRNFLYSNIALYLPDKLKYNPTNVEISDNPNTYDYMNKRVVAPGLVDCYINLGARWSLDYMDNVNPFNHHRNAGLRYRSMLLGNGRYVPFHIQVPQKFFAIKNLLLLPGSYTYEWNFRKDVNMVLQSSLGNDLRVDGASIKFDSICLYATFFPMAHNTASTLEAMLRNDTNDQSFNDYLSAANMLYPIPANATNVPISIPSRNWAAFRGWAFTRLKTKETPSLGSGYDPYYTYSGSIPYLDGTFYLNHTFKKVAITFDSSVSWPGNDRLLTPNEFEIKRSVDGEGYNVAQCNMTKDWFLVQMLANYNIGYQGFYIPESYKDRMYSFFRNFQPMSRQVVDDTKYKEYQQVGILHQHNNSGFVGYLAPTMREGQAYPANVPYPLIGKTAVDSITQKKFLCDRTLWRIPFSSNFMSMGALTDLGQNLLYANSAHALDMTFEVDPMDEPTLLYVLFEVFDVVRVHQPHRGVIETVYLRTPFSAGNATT

For B1, in assay [1], the binding result is on record as “binds”.
Turning to B2, in assay [2], the binding result is “no binding”.
As for B3, in assay [3], the binding result is recorded as “no binding (tested: 5 µg/ml biotinylated CARD1)”.
Consider B4, for which, in assay [4], the binding result is recorded as “no binding”.
Turning to B5, the binding result in assay [5] is “binds”.
